This passage reports Km toward the 10-mer substrate peptide SP in a fluorimetric kinase assay, relative to wild type NDR1 results from paper PMC4460818.

The target of this experiment is His-NDR1^3E (human) (UniProt Q15208).
Sequence of His-NDR1^3E (human) (Q15208 other isoform, or with tags, fused parts or gaps): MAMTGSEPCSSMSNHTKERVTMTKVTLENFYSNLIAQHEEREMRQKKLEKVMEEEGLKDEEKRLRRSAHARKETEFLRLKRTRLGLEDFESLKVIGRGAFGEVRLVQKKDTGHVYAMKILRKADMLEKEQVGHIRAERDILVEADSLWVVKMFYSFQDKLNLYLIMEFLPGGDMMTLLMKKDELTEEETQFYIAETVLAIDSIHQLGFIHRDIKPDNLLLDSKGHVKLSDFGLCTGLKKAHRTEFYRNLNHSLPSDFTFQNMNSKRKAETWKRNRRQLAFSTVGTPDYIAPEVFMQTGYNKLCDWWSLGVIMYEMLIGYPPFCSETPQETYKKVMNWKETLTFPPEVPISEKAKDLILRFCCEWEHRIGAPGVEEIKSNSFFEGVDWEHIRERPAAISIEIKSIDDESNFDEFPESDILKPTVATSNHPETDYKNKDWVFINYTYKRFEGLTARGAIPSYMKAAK

As to KKRNRRLSVA [10-mer NDR1 substrate peptide], the Km toward the 10-mer substrate peptide SP in a fluorimetric kinase assay, relative to wild type NDR1 came out at 1.7 fold.
